Here are results for 5 sequences from paper PMC9965484.

The data set deals with Fibroblast activation protein (FAP), recombinant human, carrier-free (BioLegend) (Homo sapiens) (UniProt Q12884). Briefly: CE-LIF (NECEEM). The conditions noted are these: CE-LIF/NECEEM: buffer for Kd not stated, CE separation (SELEX) 20 kV, 25 C, specificity: 10 min at 37 C, PBS pH 7.2 as control, AuNP assay: room temperature ….
Chain of UniProt Q12884 (Q12884 whole entry): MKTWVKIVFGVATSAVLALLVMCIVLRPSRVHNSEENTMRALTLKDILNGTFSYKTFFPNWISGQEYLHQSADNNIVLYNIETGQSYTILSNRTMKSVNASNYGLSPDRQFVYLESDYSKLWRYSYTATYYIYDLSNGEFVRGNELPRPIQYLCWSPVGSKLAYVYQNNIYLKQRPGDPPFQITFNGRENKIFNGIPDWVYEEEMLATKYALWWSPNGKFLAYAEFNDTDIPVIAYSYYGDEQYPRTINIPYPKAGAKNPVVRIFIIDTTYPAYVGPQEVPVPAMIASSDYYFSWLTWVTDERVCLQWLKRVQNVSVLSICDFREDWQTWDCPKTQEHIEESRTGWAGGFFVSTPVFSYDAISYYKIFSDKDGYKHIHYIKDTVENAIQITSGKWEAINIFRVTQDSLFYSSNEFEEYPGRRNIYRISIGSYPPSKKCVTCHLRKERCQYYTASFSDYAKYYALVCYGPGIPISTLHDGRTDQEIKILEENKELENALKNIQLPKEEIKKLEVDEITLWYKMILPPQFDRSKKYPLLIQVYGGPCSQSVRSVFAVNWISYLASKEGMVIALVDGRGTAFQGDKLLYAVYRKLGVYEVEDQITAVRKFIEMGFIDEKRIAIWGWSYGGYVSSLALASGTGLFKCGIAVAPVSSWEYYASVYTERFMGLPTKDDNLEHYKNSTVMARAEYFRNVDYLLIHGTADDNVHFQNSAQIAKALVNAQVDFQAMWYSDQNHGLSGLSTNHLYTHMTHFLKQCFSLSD

With “AGCAGCACAGAGGTCAGATGCCGCAGGCAGCTGCCATTAGTCTCTATCCGTGACGGTATGCCTATGCGTGCTACCGTGAA [AptFAP-A4]”, the dissociation constant Kd stood at 500 nM.

As for “AGCAGCACAGAGGTCAGATGGCAGCTAAGCAGGCGGCTCACAAAACCATTCGCATGCGGCCCTATGCGTGCTACCGTGAA [AptFAP-A5]”, the dissociation constant (Kd) (exact value only in figure) was more than 1000 nM.

On to “AGCAGCACAGAGGTCAGATGGCCACATTAGTCTCACCACTACCTGCGTACCTACCGCCGCCCTATGCGTGCTACCGTGAA [AptFAP-A2]”, for which, where the note is “lowest affinity of the five, exact value only in figure”, the dissociation constant (Kd) was more than 1000 nM.

With “AGCAGCACAGAGGTCAGATGGCCATCCCCCCGTCCGATGAGTGGTGCTCCTATGCGTTCCCCTATGCGTGCTACCGTGAA [AptFAP-A3]”, the Kd (exact value only in figure) is more than 1000 nM.

For “AGCAGCACAGAGGTCAGATGGCGAAGCGTACCGGCTACCCAGTGACAGTCGCCGTGGGTCCCTATGCGTGCTACCGTGAA [AptFAP-A1]”, the equilibrium dissociation constant (Kd) worked out at 500 nM.

For orientation: Kd means the free concentration of one partner at which half of the binding sites on the other are occupied at equilibrium, for simple one-to-one binding.
